Source: patent US20090220527A1 (MEDLMMUNE, published 2009)
Numbering of substitutions follows the chain as printed. Values belong to the binder of their own block, whether it stands above or below them.

Key:
[1] = biological target: T1, human EphA2 (form used in the affinity measurements not stated) (human, UniProt P29317 24-534, limits assumed); assay: surface plasmon resonance (BIAcore 3000), purified scFv
T1 construct: The only EphA2 reagent it describes is human EphA2-Fc
Description: 2A4, 2E7 and 12E2 as well as parental EA2 scFv and humanized 4H5 scFv were induced for expression in E. coli in a 1 L culture volume. The supernatants containing soluble, secreted scFv fragments were spun to remove cellular debris then passed over an anti-FLAG column (Sigma) to purify and isolate the variant proteins. The purified affinity optimized variants were analyzed by surface plasmon resonance detection using a BIAcore 3000 instrument (Pharmacia Biosensor, Uppsala, Sweden). […] (see FIG. 5).

[2] = biological target: T1, human EphA2 (form used in the affinity …); assay: method not stated; humanized clone from framework shuffling, reference chimeric Fab EA2

T1 sequence (P29317 24-534 limits assumed): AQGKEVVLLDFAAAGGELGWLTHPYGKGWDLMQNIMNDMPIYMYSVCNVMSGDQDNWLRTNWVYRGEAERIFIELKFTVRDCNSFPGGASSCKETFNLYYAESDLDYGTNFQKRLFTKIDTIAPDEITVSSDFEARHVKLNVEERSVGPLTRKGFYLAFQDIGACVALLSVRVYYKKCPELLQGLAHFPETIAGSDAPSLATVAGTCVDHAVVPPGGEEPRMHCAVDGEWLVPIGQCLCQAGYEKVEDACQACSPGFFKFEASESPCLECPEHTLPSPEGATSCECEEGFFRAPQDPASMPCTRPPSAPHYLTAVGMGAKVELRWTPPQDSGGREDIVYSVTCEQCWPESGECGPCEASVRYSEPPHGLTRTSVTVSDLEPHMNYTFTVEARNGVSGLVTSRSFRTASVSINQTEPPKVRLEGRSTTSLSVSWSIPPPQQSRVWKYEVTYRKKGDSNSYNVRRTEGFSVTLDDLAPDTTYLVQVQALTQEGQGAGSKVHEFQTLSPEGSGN

B1: 2A4 scFv (affinity optimized combinatorial variant of humanized 4H5) (scFv)
scFv: QVQLLESGGGLVQPGGSLRLSCAASGFTFSSYTMSWVRQAPGQALEWMGTISSRGTYTYYPDSVKGRFTISRDNAKNSLYLQMNSLRAEDTAVYYCAREAIFTHWGRGTLVTVSSGGGGSGGGGSGGGGSDIQLTQSPSSLSASVGDRVTITCKASQDINNYHSWYQQKPGQAPRLLIYRANRLVDGVPDRFSGSGYGTDFTLTINNIESEDAAYYFCLKYNVFPYTFGQGTKVEIK
Kd [1]: 5.6 nM
kon [1]: 652000 M⁻¹ s⁻¹

B3: 2E7 scFv (affinity optimized combinatorial variant of humanized 4H5) (scFv)
scFv: B1 scFv with H163G, V223R
kon [1]: 563000 M⁻¹ s⁻¹

Second part, the binder after the results:

kon [1]: 518000 M⁻¹ s⁻¹
B2: 12E2 scFv (affinity optimized combinatorial variant of humanized 4H5) (scFv)
scFv: B1 scFv with H104Y, H163L, V185F, N222D, V223R

fold increase of affinity against chimeric Fab EA2 [2]: ~20 fold
B4: humanized clone 4H5 (from framework shuffling of murine mAb EA2; format in this comparison not stated) (antibody, V domains shown)
VH: QVQLLESGGGLVQPGGSLRLSCAASGFTFSSYTMSWVRQAPGQALEWMGTISSGGTYTYYPDSVKGRFTISRDNAKNSLYLQMNSLRAEDTAVYYCAREAIFTYWGRGTLVTVSS
VL: DIQLTQSPSSLSASVGDRVTITCKASQDINNYLSWYQQKPGQAPRLLIYRANRLVDGVPDRFSGSGYGTDFTLTINNIESEDAAYYFCLKYDVFPYTFGQGTKVEIK
notes: Compared with chimeric Fab EA2; also called humanized Mab 4H5
